Test results: patent CN114656556A

Tests used:
[1] = biological target: SARS-CoV2 S蛋白, 拉姆达 (Lambda:C.37), on pseudovirus (SARS-CoV2); assay: cell-based or functional assay
[2] = biological target: SARS-CoV2 S蛋白, 奥密克戎 (Omicron:BA.1), on pseudovirus (SARS-CoV2); assay: cell-based or functional assay

B1: 全人源单克隆抗体YK-CoV2-03 (fully human anti-SARS-CoV2 monoclonal antibody, whole IgG) (antibody, V domains shown)
VH: EVQLQESGGGLVQPGGSLRLSCAASGLTVSRNYMTWVRQAPGKGLEWVSLIYAGGSTYYADSVKGRFTISRDNSKNTLYLQMNSLGAEDTAVYYCARDLVYYGMDVWGQGTTVTVAS
VL: DIQMTQSPFSLSASVGDRVTITCRASQGISSYLAWYQQKPGKAPKLLIYAASTLQSGVPSRFSGSGSGTDFTLTISSLQPEDFATYYCQHLNSDRYTFGQGTKLEI
Binder B1 has a pseudovirus neutralisation IC50 (luciferase RLU, 293T-hACE2 cells) [1] of 0.0209 µg/mL and a pseudovirus neutralisation IC50 (luciferase RLU, 293T-hACE2 cells) [2] of 0.32 µg/mL.
